The assay can be described thus: Enzymatic activity of mammalian ASTs transiently expressed in 293 EBNA cells. The note with it: for Cell lysate Fluorescence intensity ratio (Human:100): 293 EBNA cell lysate, three days after transfection. It is filed as biochemical. The protocol: A forward primer and a reverse primer were prepared on gene sequences encoding the N-terminal and C-terminal of each mammalian AST, and a cDNA encoding the full-length AST was prepared by a PCR amplification using the forward primer, the reverse primer, Pyrobest DNA polymerase (produced by Takara Shuzo Co.), and an airway cDNA as a template. On the other hand, a product obtained by cleaving pcDNA3 (produced by Invitrogen Corp.) with restriction enzymes NruI and KpnI, and the promoter domain of Elongation Factor-1a (EF-1 a) from human genome were amplified by a PCR using a forward primer: […] and a reverse primer: […]. The amplified fragment was cleaved with restriction enzymes NruI and KpnI, and then inserted into the above-described plasmid vector to construct the pEF9 expression vector having the promoter of the human EF-1α. The PCR-amplified ATS fragment was inserted into a multi-cloning site in the downstream of the human EF-1α promoter of the above-described pEF9 expression vector to prepare each animal AST expression plasmid. The base sequences were identified with an automatic sequencer.
Human fetal kidney-originated 293 EBNA cells (Invitrogen Corp.) were cultured in a 10 cm schale, and the about 5.8×10^6 cells were transfected with 28 μg of each expression plasmid prepared in (1) in 56 μL of LipofectAMINE 2000 (produced by GibcoBRL Corp.) according to an appended manual. Three days later, the cells were lysed and recovered in 5 mL of M-PER (produced by PIERCE Corp.) and then mixed with 5 mL of a buffer solution (50 mM Tris-HCl, 0.01% BSA, pH=8.6) for AST activity assay to give the cell lysate. The cell lysate was further diluted with the buffer solution for the AST activity assay ten times, and then supplied for the activity assay. 40 μL of the above-described assay sample was mixed with 20 μL of a synthetic substrate solution (a solution obtained by diluting a 10 mM Boc-Phe-Ser-Arg-MCA DMSO (dimethyl sulfoxide) solution with the buffer solution for the AST activity assay 50 times), and the increase of the fluorescence intensity per minute was assayed (fluorescence wavelength: 460 nm, excitation wavelength: 380 nm) to determine the enzymatic activity.

B1: Pig: pig AST, SEQ ID NO: 26 and 27 (protein, listed as Sus scrofa)
chain: MYRPATVRSASRSLNPYTVCFIVVAVVVILAVTIALLVHFLAFDQKAYFYHSRFQILNVEYSDELNSPATQKYRSLSGRIESMITRTFKESNLRNQFVRAHVVKLRQSGSGVIADIVMKFKFTRYNNGASMKSRIESVLRQMLNNTGNLVMNPSTELTPITDQDTVNIFTQGCGARPDLITLSEERIIGGTKAEEGDWPWQVSLQRNNLHHCGGVLISNRWILTAAHCFRSYSDPRQWTVTFGISTIFPKDRIGVRNILIHNNYNPETHENDIALVQLNREVAFTKNIHSVCLPEATQTIPPGSTAYVTGWGSQRYSGNTVPDLEQVRVNIISNDVCNSPAGYNGDVLPGMLCAGLPEGGADACQGDSGGPLQQEDSRRLWFLVGIVSWGYQCGLPDKPGVYTRVTAYRDWIAQQTGI
As to B1, the “Cell lysate Fluorescence intensity ratio (Human:100)” value was found to be 92.

B2: Cattle: cattle AST, SEQ ID NO: 32 and 33 (protein, listed as Bos taurus)
chain: MYRPARVTSASRSLNPYLVFFVVVAVVVILAVIIGLLVYFLAFDQKSYFYQSSIQILGKQYSDELSSPATEKYRTLSGRIESMITKTFKESDLKNEFIKAHVVKLRQSGNNVIADIIMKFKFTRRINEASMKSRIESILRQMPNNSEDLNMNPTQVISITGQDTIQLFTRECGVRSDLITLSEERIIGGSKAEKGDWPWQVSLQWSSSHRCGGALISNRWILSAAHCFRSHSDPRQWIATFGTSTISPQLRVGVRNILIHDNYKPETHENDIALVQLDREVTFNRYIHTVCLPEANQAISAGSTAYVTGWGSQSYSGSTVSDLNQGRVNIISNTVCNTPAGYNGAVLSGMLCAGLPEGGVDACQGDSGGPLVQEDSRQHWFIVGIVSWGYQCGLPDKPGVYTRVTAYRDWITQQTGI
As for B2, the “Cell lysate Fluorescence intensity ratio (Human:100)” value is given as 16.

B3: Rabbit: rabbit AST, SEQ ID NO: 34 and 35 (protein, listed as Oryctolagus cuniculus)
chain: MYRPARGSSTSRFLNPYVICFIVVAVVVILAVIVALLIHFLAFDKKSCFFHSSFQIRNVQYSDQLNSPATQEYRLLSERIESMISQTLQGSNLRNQFIRAHVVKLRQDSNSVIADVVMKFRVSRNNNGDAMKRRVQDVLQQMLNNSGSLEINPSTTVTEITGQDTETIFTQQCGARPDLITLSEERIIGGTQAEEGDWPWQVSLQPNNAHHCGGILISNTWILTAAHCFRSYSDPRQWTATFGISTAVSRQRMRIRTILVHNNYRSATHENDIAAVQLEGAITFTRNIHSVCLPEATQNITPGSSAYVTGWGSLEYGGNTVTYLQQGRVRIISNEVCNAPASYNGAVLPTMVCAGLSQGGVDACQGDSGGPLVQEDSRRLWFVVGIVSWGYQCGLPDKPGVYTRVTAYRDWIREQTGI
As for B3, the “Cell lysate Fluorescence intensity ratio (Human:100)” value was determined as 30.

B4: Monkey: monkey AST, SEQ ID NO: 28 and 29, expressed in 293 EBNA cells (protein, listed as Macaca fascicularis)
chain: MYRPARVPSTSRFLNPYVVCFIVVAGVVILAVTIALLVYFLAFDQKSYFYRSSFQLLNVEYNSQLNSPATQEYRTLSGRIESLITRTFKESNLRNQFMRAHVVKLSQDGSGVRADVVMKFRFTRNNNGASMKSRIESVLQQMLNNSGNLEINSSTEITSLTDQAAANWLINECGAGPDLITLSEQRIIGGTEAEEGSWPWQVSLRVNNAHHCGGSLISNTWILTAAHCFRSNSNPREWIATFGISTTNPRLRMRVRSILIHNNYISATHENDIALVRLENSVTFTRDIHSVCLPAATQNIPLGSTAYVTGWGAQEYAGSTVSELRQAQVRIISNDVCNAPYSYNGGILPGMLCAGVPQGGVDACQGDSGGPLVQEDSRRLWFLVGIVSWGDQCGLPDRPGVYTRVTTYRDWIRQRTGI
B4: the “Cell lysate Fluorescence intensity ratio (Human:100)” value was found to be 250. Moreover, for the setting “293 EBNA, Sup”, the “Sup Fluorescence intensity ratio (Human:100)” value is 150.

B5: Dog: dog AST, SEQ ID NO: 30 and 31 (protein, listed as Canis familiaris)
chain: MYRPARVPSGSRFLNPYVVCFVVVAGVVILAVTIALLIHFLAFDQKSYFYHSSFQILNVQYSNQLNSPGTQEYRTLSGRIESLITKTFRESNLRNQFIRAHVVKLRQEGNGVIADVVMKFKFTRNNNGALMKSRIKSVLHQMLNNSGNLEISPSTEITSITDQDTVNIFTEGCGARPDLITLSEERILGGNKAEEGDWPWQVSLQKNNVHHCGGVLISSMWILSAAHCFRSQSNPRQWTAIFGASIAFPKQKRRVRTILIHNNYNPATHENDIAAIQLEGGINFTKNIHRVCLPEATQNIPPGSSAYVTGWGSQEYGGNTVSDLQQARVRIISNDVCNAPTSYNGAVRPGMLCAGLPQGGVDACRGDSGGPLVQEDSRRLWFLVGIVSWGDRCGLPDKPGVYTRVTAYRDWITEKTGV
B5: the “Cell lysate Fluorescence intensity ratio (Human:100)” value is given as 40.

For the origin of these results see patent US20040038369A1, “Airway-specific trypsin-like enzymes and method of using the same” (priority 2000, published 2004).
